Sequences and labels used below:
B1: Protein unc-93 homolog B1 (Homo sapiens), Q9H1C4 (parent)
chain: MEAEPPLYPMAGAAGPQGDEDLLGVPDGPEAPLDELVGAYPNYNEEEEERRYYRRKRLGVLKNVLAASAGGMLTYGVYLGLLQMQLILHYDETYREVKYGNMGLPDIDSKMLMGINVTPIAALLYTPVLIRFFGTKWMMFLAVGIYALFVSTNYWERYYTLVPSAVALGMAIVPLWASMGNYITRMAQKYHEYSHYKEQDGQGMKQRPPRGSHAPYLLVFQAIFYSFFHLSFACAQLPMIYFLNHYLYDLNHTLYNVQSCGTNSHGILSGFNKTVLRTLPRSGNLIVVESVLMAVAFLAMLLVLGLCGAAYRPTEEIDLRSVGWGNIFQLPFKHVRDYRLRHLVPFFIYSGFEVLFACTGIALGYGVCSVGLERLAYLLVAYSLGASAASLLGLLGLWLPRPVPLVAGAGVHLLLTFILFFWAPVPRVLQHSWILYVAAALWGVGSALNKTGLSTLLGILYEDKERQDFIFTIYHWWQAVAIFTVYLGSSLHMKAKLAVLLVTLVAAAVSYLRMEQKLRRGVAPRQPRIPRPQHKVRGYRYLEEDNSDESDAEGEHGDGAEEEAPPAGPRPGPEPAGLGRRPCPYEQAQGGDGPEEQ
B2: Protein unc-93 homolog B1 (Homo sapiens), Q9H1C4 (parent)
chain: B1 chain
partner: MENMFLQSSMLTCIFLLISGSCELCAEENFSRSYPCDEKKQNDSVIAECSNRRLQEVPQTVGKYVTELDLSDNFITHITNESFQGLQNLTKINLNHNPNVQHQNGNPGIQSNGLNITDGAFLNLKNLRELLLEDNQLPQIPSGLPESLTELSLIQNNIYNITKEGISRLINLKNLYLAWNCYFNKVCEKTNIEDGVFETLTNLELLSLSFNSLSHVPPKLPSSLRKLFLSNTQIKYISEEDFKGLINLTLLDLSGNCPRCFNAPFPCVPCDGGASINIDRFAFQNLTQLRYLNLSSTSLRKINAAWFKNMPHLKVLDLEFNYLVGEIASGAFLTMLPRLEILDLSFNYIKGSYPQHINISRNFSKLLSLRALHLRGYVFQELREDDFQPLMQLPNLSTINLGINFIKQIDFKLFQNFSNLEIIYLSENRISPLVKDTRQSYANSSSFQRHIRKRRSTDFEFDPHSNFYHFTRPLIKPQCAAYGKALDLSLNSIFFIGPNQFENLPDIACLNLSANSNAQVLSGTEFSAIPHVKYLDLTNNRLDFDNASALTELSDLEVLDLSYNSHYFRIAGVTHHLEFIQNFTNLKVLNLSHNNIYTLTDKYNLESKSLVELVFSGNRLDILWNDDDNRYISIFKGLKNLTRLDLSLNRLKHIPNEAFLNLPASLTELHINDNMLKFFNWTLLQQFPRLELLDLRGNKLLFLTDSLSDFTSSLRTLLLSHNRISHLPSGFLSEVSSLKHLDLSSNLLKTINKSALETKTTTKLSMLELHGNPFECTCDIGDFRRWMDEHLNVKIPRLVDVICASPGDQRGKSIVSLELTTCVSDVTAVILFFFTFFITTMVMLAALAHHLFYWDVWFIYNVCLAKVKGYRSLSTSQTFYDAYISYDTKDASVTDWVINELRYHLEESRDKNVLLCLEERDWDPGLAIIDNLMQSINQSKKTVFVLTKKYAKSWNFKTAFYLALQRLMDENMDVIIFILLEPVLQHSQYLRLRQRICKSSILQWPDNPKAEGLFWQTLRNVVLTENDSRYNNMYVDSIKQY

The variants in one test derive from B1. Particulars: with tlr3_human TLR3, O15455.
With MEAEPPLYPMAGAAGPQGDEDLLGVPDGPEAPLDELVGAYPNYNEEEEERRYYRRKRLGVLKNVLAASAGGMLTYGVYLGLLQMQLILHYDETYREVKYGNMGLPDIDSKMLMGINVTPIAALLYTPVLIRFFGTKWMMFLAVGIYALFVSTNYWERYYTLVPSAVALGMAIVPLWASMGNYITRMAQKYHEYSHYKEQDGQGMKQRPPRGSHAPYLLVFQAIFYSFFHLSFACAQLPMIYFLNHYLYDLNHTLYNVQSCGTNSHGILSGFNKTVLRTLPRSGNLIVVESVLMAVAFLAMLLVLGLCGAAYRPTEEIDLRSVGWGNIFQLPFKHVRDYRLRHLVPFFIYSGFEVLFACTGIALGYGVCSVGLERLAYLLVAYSLGASAASLLGLLGLWLPRPVPLVAGAGVRLLLTFILFFWAPVPRVLQHSWILYVAAALWGVGSALNKTGLSTLLGILYEDKERQDFIFTIYHWWQAVAIFTVYLGSSLHMKAKLAVLLVTLVAAAVSYLRMEQKLRRGVAPRQPRIPRPQHKVRGYRYLEEDNSDESDAEGEHGDGAEEEAPPAGPRPGPEPAGLGRRPCPYEQAQGGDGPEEQ [H412R], the “effect of a mutation on the interaction” value was “disrupting interaction strength”.

The variants in the next test derive from B2. As to conditions: with tlr8_human TLR8, Q9NR97.
Take MEAEPPLYPMAGAAGPQGDEDLLGVPDGPEAPLDELVGAYPNYNEEEEERRYYRRKRLGVLKNVLAASAGGMLTYGVYLGLLQMQLILHYDETYREVKYGNMGLPDIDSKMLMGINVTPIAALLYTPVLIRFFGTKWMMFLAVGIYALFVSTNYWERYYTLVPSAVALGMAIVPLWASMGNYITRMAQKYHEYSHYKEQDGQGMKQRPPRGSHAPYLLVFQAIFYSFFHLSFACAQLPMIYFLNHYLYDLNHTLYNVQSCGTNSHGILSGFNKTVLRTLPRSGNLIVVESVLMAVAFLAMLLVLGLCGAAYRPTEEIDLRSVGWGNIFQLPFKHVRDYRLRHLVPFFIYSGFEVLFACTGIALGYGVCSVGLERLAYLLVAYSLGASAASLLGLLGLWLPRPVPLVAGAGVRLLLTFILFFWAPVPRVLQHSWILYVAAALWGVGSALNKTGLSTLLGILYEDKERQDFIFTIYHWWQAVAIFTVYLGSSLHMKAKLAVLLVTLVAAAVSYLRMEQKLRRGVAPRQPRIPRPQHKVRGYRYLEEDNSDESDAEGEHGDGAEEEAPPAGPRPGPEPAGLGRRPCPYEQAQGGDGPEEQ [H412R]: the “effect of a mutation on the interaction” value is listed as “disrupting interaction strength”.
